According to paper PMC3904827, “Segmental Helical Motions and Dynamical Asymmetry Modulate Histidine Kinase Autophosphorylation” (PLoS Biology, 2014):
Positions count from the first letter of the chain named.

B1: full cytoplasmic region of E. coli CpxA (CpxAHDC), wild type (domain or fragment, Escherichia coli, UniProt P0AE82 188-457, looked up)
chain: KPARKLKNAADEVAQGNLRQHPELEAGPQEFLAAGASFNQMVTALERMMTSQQRLLSDISHELRTPLTRLQLGTALLRRRSGESKELERIETEAQRLDSMINDLLVMSRNQQKNALVSETIKANQLWSEVLDNAAFEAEQMGKSLTVNFPPGPWPLYGNPNALESALENIVRNALRYSHTKIEVGFAVDKDGITITVDDDGPGVSPEDREQIFRPFYRTDEARDRESGGTGLGLAIVETAIQQHRGWVKAEDSPLGGLRLVIWLPLYKRS
notes: Sensor histidine kinase CpxA, Escherichia coli, full cytoplasmic region: HAMP domain (residues 188-237) and DHp and CA domains (residues 238-457); The trigonal (4BIV) and hexagonal (4CB0) crystals were grown from seleno-methionyl protein; Crystallised with ADP or ATP; also called CpxA transmitter core; wild-type CpxAHDC; source: SeMet protein from E. coli B834 (DE3)
B2: point mutant CpxA_(HDC_M228V) of the full cytoplasmic region of E. coli CpxA (domain or fragment, Escherichia coli, UniProt P0AE82 188-457, looked up)
chain: B1 chain with M41V
notes: Sensor histidine kinase CpxA, Escherichia coli, full cytoplasmic region (HAMP 188-237, DHp and CA 238-457) with the point mutation Met228-Val in the HAMP domain; Probably made like wild-type CpxAHDC (His-tagged, pET28a+, E. coli, IMAC and gel filtration), but the methods describe only the CpxAHDC construct; Crystallised with AMPPNP or ADP; also called CpxAHDC Met228-Val; source: purified protein

Legend:
[1] = molecular target: the molecule itself; test: crystal structure; monomers to homodimer; vapor diffusion at 18°C, protein at ~15 mg/ml, in complex with nucleotides; five crystal forms (C222_(1), P3_(1)21, P6_(1)22, C2, I2)
[2] = molecular target: the molecule itself; test: crystal structure; dimers to tetramer (dimer of dimers) as seen in the hexagonal and monoclinic crystal forms; vapor diffusion at 18°C, protein at ~15 mg/ml

Protein | stoichiometry N [1] | stoichiometry N [2]
B1 | 2 | 4
B2 | 2 | 4
